In patent publication US20220025008A1 (FAPON BIOTECH, published 2022):

T1: Recombinant NT antigen (N-terminal pro-brain natriuretic peptide, NT-proBNP) (human, UniProt P16860 27-102)
T1 construct: domain: N-terminal pro-brain natriuretic peptide (NT-proBNP); also called recombinant NT protein; N-terminal pro-B-type natriuretic peptide
T1 sequence (looked up): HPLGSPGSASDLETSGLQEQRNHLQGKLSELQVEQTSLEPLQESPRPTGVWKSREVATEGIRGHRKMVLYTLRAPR


Target: T1, Recombinant NT antigen (N-terminal …)
Assay: indirect ELISA, KD calculated from half-max OD at 4 coating concentrations
Description: Recombinant NT antigen was diluted with coating solution to 1 μg/ml a microplate overnight at 4° C.; which was washed twice with washing solution and patted dry on the next day; with addition of blocking solution (20% BSA+80% PBS) at 120 μL per well at 37° C. for 1 h and patted dry; added the diluted NT monoclonal antibody, 100 μL/well at 37° C. for 30 min (partial supernatant for 1 h); washed 5 times with washing solution and patted dry; added rabbit anti-goat IgG-HRP […] per well at 37° C. for 30 min; washed 5 times with washing solution and patted dry; added color developing solution A (50 μL/well), added color developing solution B (50 μL/well) for 10 min; added stop solution, 50 μL/well; followed by reading the OD value at 450 nm (reference 630 nm) on the microplate reader.
Data from the enzyme immunoassay indirect method were analyzed in the same way as the activity identification, with four gradients of 3 μg/ml, 1.5 μg/ml, 0.75 μg/ml and 0.375 μg/ml for coating; the antibody was diluted from 1000 ng/ml by 2 times to 0.977 ng/ml for loading sample. OD values corresponding to different antibody concentrations at different coating concentrations were obtained. Under the same coating concentration, data were plotted logarithmically with the antibody concentration as the abscissa and the OD value as the ordinate.

Row | Binder | Kd [nM]
1 | Mutation 1-33 (antibody) heavy: QVRLQESGPSQVKPAQTLSLTCAISGFSVTTYYIDWVRHTPGKPPEWLAQMTKDGNAVHQPTLRSRLSITRDTSKSQVFLKLTGVTTEDTAVYYCVRGLIDFGPGLLVTVSSASTTPPKVYPLTSCCGDTSSSIVTLGCLVSSYMPEPVTVTWNSGALTSGVHTFPAILQSSGLYSLSSVVTVPASTSGAQTFICNVAHPASSTKVDKRVEPGCPDPCKHCRCPPPELPGGPSVFIFPPKPKDTLTISGTPEVTCVVVDVGQDDPEVQFSWFVDNVEVRTARTKPREEQFNSTFRVVSALPIQHQDWTGGKEFKCKVHNEGLPAPIVRTISRTKGQAREPQVYVLAPPQEELSKSTLSVTCLVTGFYPDYIAVEWQKNGQPESEDKYGTTTSQLDADGSYFLYSRLRVDKNSWQEGDTYACVVMHEALHNHYTQKSISKPPGK light: QAVLTQPSSVSRSLGQTVSITCSGSSDQVGFGDYINWFQLIPGSAPKTLIFGAYSRIRGVPDRFSGSRSGNTATLTINSLQAEDEADYYCGSANSRGGYVFGSGTRLTVLSQPKSAPSVTLFPPSKEELDTNKATVVCLISDFYPGSVNVVWKADGSTINQNVKTTQASKQSNSKYAASSYLTLTGSEWKSKSSYTCEVTHEGSTVTKTVKPSECS | 2.6
2 | Mutation 1-5 (antibody) heavy: QVRLQESGPSQVKPAQTLSLTCAISGFSLTTYYVDWVRHTPGKPPEWLAQMTKDGNAVHNPTVRSRLSITRDTSKSQVFLKLTGVTTEDTAVYYCVRGVIDFGPGLLVTVSSASTTPPKVYPLTSCCGDTSSSIVTLGCLVSSYMPEPVTVTWNSGALTSGVHTFPAILQSSGLYSLSSVVTVPASTSGAQTFICNVAHPASSTKVDKRVEPGCPDPCKHCRCPPPELPGGPSVFIFPPKPKDTLTISGTPEVTCVVVDVGQDDPEVQFSWFVDNVEVRTARTKPREEQFNSTFRVVSALPIQHQDWTGGKEFKCKVHNEGLPAPIVRTISRTKGQAREPQVYVLAPPQEELSKSTLSVTCLVTGFYPDYIAVEWQKNGQPESEDKYGTTTSQLDADGSYFLYSRLRVDKNSWQEGDTYACVVMHEALHNHYTQKSISKPPGK light: QAVLTQPSSVSRSLGQTVSITCSGSSDNVGFGDYINWFQLIPGSAPKTLIFGAYSRVRGVPDRFSGSRSGNTATLTINSLQAEDEADYYCGSGNSRNYVFGSGTRLTVLSQPKSAPSVTLFPPSKEELDTNKATVVCLISDFYPGSVNVVWKADGSTINQNVKTTQASKQSNSKYAASSYLTLTGSEWKSKSSYTCEVTHEGSTVTKTVKPSECS | 6.1
3 | Mutation 1-11 (antibody) heavy: QVRLQESGPSQVKPAQTLSLTCAISGFSITTYYVDWVRHTPGKPPEWLAQMTKDGNAVHQPTIRSRLSITRDTSKSQVFLKLTGVTTEDTAVYYCVRGVIDFGPGLLVTVSSASTTPPKVYPLTSCCGDTSSSIVTLGCLVSSYMPEPVTVTWNSGALTSGVHTFPAILQSSGLYSLSSVVTVPASTSGAQTFICNVAHPASSTKVDKRVEPGCPDPCKHCRCPPPELPGGPSVFIFPPKPKDTLTISGTPEVTCVVVDVGQDDPEVQFSWFVDNVEVRTARTKPREEQFNSTFRVVSALPIQHQDWTGGKEFKCKVHNEGLPAPIVRTISRTKGQAREPQVYVLAPPQEELSKSTLSVTCLVTGFYPDYIAVEWQKNGQPESEDKYGTTTSQLDADGSYFLYSRLRVDKNSWQEGDTYACVVMHEALHNHYTQKSISKPPGK light: QAVLTQPSSVSRSLGQTVSITCSGSSDQVGFGDYVNWFQLIPGSAPKTLIFGASSRVRGVPDRFSGSRSGNTATLTINSLQAEDEADYYCGSPNSRGGYVFGSGTRLTVLSQPKSAPSVTLFPPSKEELDTNKATVVCLISDFYPGSVNVVWKADGSTINQNVKTTQASKQSNSKYAASSYLTLTGSEWKSKSSYTCEVTHEGSTVTKTVKPSECS | 1.52
4 | Mutation 1-9 (antibody) heavy: QVRLQESGPSQVKPAQTLSLTCAISGFSITTYYIDWVRHTPGKPPEWLAQMTKDGNAVHQPTLRSRLSITRDTSKSQVFLKLTGVTTEDTAVYYCVRGLIDFGPGLLVTVSSASTTPPKVYPLTSCCGDTSSSIVTLGCLVSSYMPEPVTVTWNSGALTSGVHTFPAILQSSGLYSLSSVVTVPASTSGAQTFICNVAHPASSTKVDKRVEPGCPDPCKHCRCPPPELPGGPSVFIFPPKPKDTLTISGTPEVTCVVVDVGQDDPEVQFSWFVDNVEVRTARTKPREEQFNSTFRVVSALPIQHQDWTGGKEFKCKVHNEGLPAPIVRTISRTKGQAREPQVYVLAPPQEELSKSTLSVTCLVTGFYPDYIAVEWQKNGQPESEDKYGTTTSQLDADGSYFLYSRLRVDKNSWQEGDTYACVVMHEALHNHYTQKSISKPPGK light: QAVLTQPSSVSRSLGQTVSITCSGSSDQVGFGDYINWFQLIPGSAPKTLIFGASSRIRGVPDRFSGSRSGNTATLTINSLQAEDEADYYCGSANSRGGYVFGSGTRLTVLSQPKSAPSVTLFPPSKEELDTNKATVVCLISDFYPGSVNVVWKADGSTINQNVKTTQASKQSNSKYAASSYLTLTGSEWKSKSSYTCEVTHEGSTVTKTVKPSECS | 1.56
5 | Mutation 1-38 (antibody, V domains shown) VH: QVRLQESGPSQVKPAQTLSLTCAISGFSITTYYVDWVRHTPGKPPEWLAQMTKDGNAVHQPTLRSRLSITRDTSKSQVFLKLTGVTTEDTAVYYCVRGLIDWGPGLLVTVSS VL: QAVLTQPSSVSRSLGQTVSITCSGSSDQVGFGDYINWFQLIPGSAPKTLIFGATSRVRGVPDRFSGSRSGNTATLTINSLQAEDEADYYCGSGNSRGGYVFGSGTRLTVLS | 1.82
6 | Mutation 1-6 (antibody, V domains shown) VH: QVRLQESGPSQVKPAQTLSLTCAISGFSVTTYYIDWVRHTPGKPPEWLAQMTKDGNAVHNPTVRSRLSITRDTSKSQVFLKLTGVTTEDTAVYYCVRGIIDWGPGLLVTVSS VL: QAVLTQPSSVSRSLGQTVSITCSGSSDNVGFGDYINWFQLIPGSAPKTLIFGASSRIRGVPDRFSGSRSGNTATLTINSLQAEDEADYYCGSPNSRNYVFGSGTRLTVLS | 1.17

Continued, values first:

Row | Kd [nM] | Binder
7 | 6.14 | WT 1-6 (antibody, V domains shown) VH: QVRLQESGPSQVKPAQTLSLTCAISGPSITTYYVDWVRHTPGKPPEWLAQMTKDANAVHQPTIRSRLSITRDTSKSQVFLKLTGVTTEDTAVYYCVKGLIDWGPGLLVTVSS V domain: QAVLTQPSSVSRSLGQTVSITCSGSSDQVGPGDYLNWFQLIPGSAPKTLIFAASSRLRGVPDRFSGSRSGNTATLTINSLQAEDEADYYCGSANSRGGYVWGSGTRLTVLS
8 | 5.05 | WT 1-7 (antibody, V domains shown) VH: QVRLQESGPSQVKPAQTLSLTCAISGPSVTTYYLDWVRHTPGKPPEWLAQMTKDANAVHQPTVRSRLSITRDTSKSQVFLKLTGVTTEDTAVYYCVKGVIDWGPGLLVTVSS V domain: QAVLTQPSSVSRSLGQTVSITCSGSSDNVGPGDYINWFQLIPGSAPKTLIFAAYSRLRGVPDRFSGSRSGNTATLTINSLQAEDEADYYCGSGNSRGGYVWGSGTRLTVLS
9 | 2.71 | Mutation 1-52 (antibody, V domains shown) VH: QVRLQESGPSQVKPAQTLSLTCAISGFSVTTYYLDWVRHTPGKPPEWLAQMTKDGNAVHQPTVRSRLSITRDTSKSQVFLKLTGVTTEDTAVYYCVRGVIDWGPGLLVTVSS VL: QAVLTQPSSVSRSLGQTVSITCSGSSDNVGFGDYLNWFQLIPGSAPKTLIFGAYSRLRGVPDRFSGSRSGNTATLTINSLQAEDEADYYCGSGNSRGGYVFGSGTRLTVLS
10 | 3.02 | WT 1-4 (antibody) heavy: QVRLQESGPSQVKPAQTLSLTCAISGPSVTTYYVDWVRHTPGKPPEWLAQMTKDANAVHQPTLRSRLSITRDTSKSQVFLKLTGVTTEDTAVYYCVKGVIDFGPGLLVTVSSASTTPPKVYPLTSCCGDTSSSIVTLGCLVSSYMPEPVTVTWNSGALTSGVHTFPAILQSSGLYSLSSVVTVPASTSGAQTFICNVAHPASSTKVDKRVEPGCPDPCKHCRCPPPELPGGPSVFIFPPKPKDTLTISGTPEVTCVVVDVGQDDPEVQFSWFVDNVEVRTARTKPREEQFNSTFRVVSALPIQHQDWTGGKEFKCKVHNEGLPAPIVRTISRTKGQAREPQVYVLAPPQEELSKSTLSVTCLVTGFYPDYIAVEWQKNGQPESEDKYGTTTSQLDADGSYFLYSRLRVDKNSWQEGDTYACVVMHEALHNHYTQKSISKPPGK light: QAVLTQPSSVSRSLGQTVSITCSGSSDQVGPGDYVNWFQLIPGSAPKTLIFAATSRIRGVPDRFSGSRSGNTATLTINSLQAEDEADYYCGSGNSRGGYVWGSGTRLTVLSQPKSAPSVTLFPPSKEELDTNKATVVCLISDFYPGSVNVVWKADGSTINQNVKTTQASKQSNSKYAASSYLTLTGSEWKSKSSYTCEVTHEGSTVTKTVKPSECS
11 | 2.22 | Mutation 1-42 (antibody, V domains shown) VH: QVRLQESGPSQVKPAQTLSLTCAISGFSVTTYYIDWVRHTPGKPPEWLAQMTKDGNAVHNPTVRSRLSITRDTSKSQVFLKLTGVTTEDTAVYYCVRGIIDWGPGLLVTVSS VL: QAVLTQPSSVSRSLGQTVSITCSGSSDNVGFGDYINWFQLIPGSAPKTLIFGASSRIRGVPDRFSGSRSGNTATLTINSLQAEDEADYYCGSGNSRGGYVFGSGTRLTVLS
